Data on 2 substances can be found in publication PMC8891976.

Test [1] addresses ASC (apoptosis-associated speck-like protein containing a CARD) (UniProt Q9ULZ3). The test can be described thus: real-time NMR.
Test [2] has as its target ASCb (alternative splicing isoform of ASC) (UniProt Q9ULZ3). Description: real-time NMR.

For “ASC (apoptosis-associated speck-like protein containing a CARD) (from UniProt Q9ULZ3 1-195) (natural protein)”, in test [1], the k1aveCARD (average apparent rate constant k1 of the residues of the CARD) came out at 0.12 h⁻¹, the k1avePYD (average apparent rate constant k1 of the residues of the PYD) came to 0.21 h⁻¹, the k2aveCARD (average apparent rate constant k2 of the residues of the CARD) was determined as 0.02 h⁻¹ and the k2avePYD (average apparent rate constant k2 of the residues of the PYD) worked out at 0.05 h⁻¹.

“ASCb (alternative splicing isoform of ASC) (from UniProt Q9ULZ3-2 1-176) (natural protein)”: in test [2], the k1 (apparent oligomerization rate constant, exponential fit) was 0.02 h⁻¹; the k1aveCARD (average apparent rate constant k1 of the residues of the CARD) was found to be 0.0288 h⁻¹; the k1avePYD (average apparent rate constant k1 of the residues of the PYD) was determined as 0.0269 h⁻¹; the k2 (apparent oligomerization rate constant, exponential fit) was found to be 0.02 h⁻¹. In addition, in test [2], the k2aveCARD (average apparent rate constant k2 of the residues of the CARD) turned out to be 0.0288 h⁻¹, the k2avePYD (average apparent rate constant k2 of the residues of the PYD) was 0.0269 h⁻¹, the reaction order m of oligomer formation (column of 495 μM) was determined as 3.6 and the reaction order m of oligomer formation (column of 704 μM) was 3.6.
